T1: HA-tagged Bot1p (HA3-bot1, pRep41-HA3bot1)
T1 chain: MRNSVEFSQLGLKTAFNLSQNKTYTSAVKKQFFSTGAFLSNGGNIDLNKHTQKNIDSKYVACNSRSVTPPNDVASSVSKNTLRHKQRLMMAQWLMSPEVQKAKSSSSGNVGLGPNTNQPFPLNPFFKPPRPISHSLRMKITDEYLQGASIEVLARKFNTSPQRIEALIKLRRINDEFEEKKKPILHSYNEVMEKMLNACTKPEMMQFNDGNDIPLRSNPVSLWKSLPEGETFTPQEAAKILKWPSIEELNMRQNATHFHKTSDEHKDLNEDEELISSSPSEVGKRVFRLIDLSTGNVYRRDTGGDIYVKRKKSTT

T2: HA-tagged Cdc23p (pRep41-HA3cdc23) (fission yeast, UniProt O42709 1-593)
T2 construct: also called HA-Cdc23p; HA-Cdc23
T2 sequence (looked up): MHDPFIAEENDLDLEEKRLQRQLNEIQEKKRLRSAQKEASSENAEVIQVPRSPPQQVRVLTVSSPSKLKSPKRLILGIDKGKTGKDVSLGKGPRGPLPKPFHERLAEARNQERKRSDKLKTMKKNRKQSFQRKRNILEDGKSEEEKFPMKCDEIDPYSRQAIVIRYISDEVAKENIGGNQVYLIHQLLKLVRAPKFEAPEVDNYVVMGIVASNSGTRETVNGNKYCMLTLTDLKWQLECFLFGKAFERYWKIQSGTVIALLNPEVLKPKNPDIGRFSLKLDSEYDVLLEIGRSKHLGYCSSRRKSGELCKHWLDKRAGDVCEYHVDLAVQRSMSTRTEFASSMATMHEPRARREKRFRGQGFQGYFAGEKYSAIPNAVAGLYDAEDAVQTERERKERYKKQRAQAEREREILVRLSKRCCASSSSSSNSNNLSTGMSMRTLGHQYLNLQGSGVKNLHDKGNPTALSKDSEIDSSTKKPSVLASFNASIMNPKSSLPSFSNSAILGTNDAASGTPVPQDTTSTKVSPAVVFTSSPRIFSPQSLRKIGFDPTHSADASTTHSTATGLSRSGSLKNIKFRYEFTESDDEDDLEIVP

T3: HA-tagged Tea1p (nmt1-HA3tea1) (Schizosaccharomyces pombe, UniProt P87061 1-1147)
T3 construct: also called HA-Tea1p
T3 sequence (looked up): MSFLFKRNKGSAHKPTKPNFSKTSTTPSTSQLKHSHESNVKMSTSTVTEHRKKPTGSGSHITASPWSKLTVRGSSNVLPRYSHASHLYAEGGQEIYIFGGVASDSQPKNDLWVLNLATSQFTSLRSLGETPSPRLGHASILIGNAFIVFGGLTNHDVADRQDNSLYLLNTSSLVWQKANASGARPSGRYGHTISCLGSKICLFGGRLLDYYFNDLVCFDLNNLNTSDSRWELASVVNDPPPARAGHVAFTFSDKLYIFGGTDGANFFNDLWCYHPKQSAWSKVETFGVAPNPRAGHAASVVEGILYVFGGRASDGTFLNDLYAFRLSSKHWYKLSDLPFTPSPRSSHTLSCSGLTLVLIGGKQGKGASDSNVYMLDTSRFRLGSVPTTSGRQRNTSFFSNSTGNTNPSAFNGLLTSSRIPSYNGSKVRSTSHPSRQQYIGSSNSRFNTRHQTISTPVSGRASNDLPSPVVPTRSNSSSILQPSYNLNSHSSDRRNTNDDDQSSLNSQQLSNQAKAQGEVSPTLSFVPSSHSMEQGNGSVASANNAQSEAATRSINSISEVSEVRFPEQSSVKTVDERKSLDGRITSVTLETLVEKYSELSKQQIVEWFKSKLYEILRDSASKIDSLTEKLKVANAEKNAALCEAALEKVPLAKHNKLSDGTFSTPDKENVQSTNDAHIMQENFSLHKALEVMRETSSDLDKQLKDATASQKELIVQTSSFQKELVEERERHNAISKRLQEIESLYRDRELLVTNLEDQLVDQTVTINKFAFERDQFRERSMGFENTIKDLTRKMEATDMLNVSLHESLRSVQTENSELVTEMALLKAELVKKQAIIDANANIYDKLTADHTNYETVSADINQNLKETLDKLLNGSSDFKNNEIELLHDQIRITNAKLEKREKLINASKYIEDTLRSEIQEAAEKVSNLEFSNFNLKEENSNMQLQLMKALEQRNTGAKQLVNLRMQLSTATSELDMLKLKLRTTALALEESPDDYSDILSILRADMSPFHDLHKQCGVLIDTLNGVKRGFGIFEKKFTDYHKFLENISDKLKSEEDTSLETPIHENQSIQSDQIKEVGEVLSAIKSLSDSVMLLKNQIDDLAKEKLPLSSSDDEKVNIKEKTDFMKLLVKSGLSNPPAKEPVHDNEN

B1: GST-tagged Orb6p expressed in fission yeast (pESP-GSTOrb6+) (enzyme, Schizosaccharomyces pombe, UniProt O13310 1-469, looked up, not shown: a dimerising Fc or GST)
chain: MDKNDYLHFERNPSLFPKSTLDKVQKTKKYIEHYYKVAVDHAVERNQRRINLEQRLATERGSEERKNRQLRASGEKESQFLRFRRTRLSLEDFSTIKVIGKGAFGEVRLVQKLDTGKIYAMKSLLKTEMFKRDQLAHVKAERDLLVESDSPWVVSLYYAFQDSLYLYLIMEFLPGGDLMTMLINYDTFSEDVTRFYMAECVLAIADVHRMGYIHRDIKPDNILIDRDGHIKLSDFGLSTGFYKQDQSASYMKPRTGNTVKRGQMVDAIWLTMSSKDKMATWKKNRRVMAYSTVGTPDYIAPEIFLQQGYGQDCDWWSLGAIMFECLIGWPPFCSENSHETYRKIINWRETLTFPNDIHLSIEARDLMDRLMTDSEHRLGRGGAIEIMQHPFFTGIDWDHIRETAAPFIPNLKSITDTHYFPVDELEQVPEQPVTQQPASVDPQTLEQTNLAFLGYTYKKFNYLTMKGAL
notes: also called GST-Orb6p
B2: GAL4 activation domain fused to SNF4p (pSE1111, pACT-SNF4) (other, UniProt P12904 1-322, looked up, not shown: large carriers)
chain: MKPTQDSQEKVSIEQQLAVESIRKFLNSKTSYDVLPVSYRLIVLDTSLLVKKSLNVLLQNSIVSAPLWDSKTSRFAGLLTTTDFINVIQYYFSNPDKFELVDKLQLDGLKDIERALGVDQLDTASIHPSRPLFEACLKMLESRSGRIPLIDQDEETHREIVVSVLTQYRILKFVALNCRETHFLKIPIGDLNIITQDNMKSCQMTTPVIDVIQMLTQGRVSSVPIIDENGYLINVYEAYDVLGLIKGGIYNDLSLSVGEALMRRSDDFEGVYTCTKNDKLSTIMDNIRKARVHRFFVVDDVGRLVGVLTLSDILKYILLGSN
B3: GAL4 activation domain (GAD) alone (other, UniProt P04386 768-881, looked up)
chain: ANFNQSGNIADSSLSFTFTNSSNGPNLITTQTNSQALSQPIASSNVHDNFMNNEITASKIDDGNNSKPLSPGWTDQTAYNAFGITTGMFNTTTMDDVYNYLFDDEDTPPNPKKE
notes: Two-hybrid negative control

Assays:
[1] = target: T1, HA-tagged Bot1p (HA3-bot1, …)
[2] = target: T2, HA-tagged Cdc23p (pRep41-HA3cdc23); experiment: co-purification on glutathione resin from fission yeast extracts, co-expressed
Procedure: (§1) Immunoblot analysis was performed using standard methodology. For co-purification experiments, ade6-704 ura4-D18 leu1-32 h-cells co-expressing HA-tagged Bot1p and GST-tagged Orb6p (FV17p), or cells co-expressing HA-tagged Bot1p and GST alone (FV16p) as a control were cultured, for 15 hr at 32° C. in the absence of thiamine. HA₃-bot1 was moderately expressed from an attenuated nmt1 promoter (10). GST-tagged fusions were constructed using the pESP plasmid (Qiagen), which also contains a nmt1 promoter. Cells were then re-suspended in HB buffer and broken using a FastPrep FP120 bead beater (Savant). Extracts were spun at 15K rpm for 15 min. GST-tagged Orb6 or GST alone was purified using glutathione beads (Molecular Probes).
Glutathione beads were washed three times in HB buffer and then eluted. […]
To confirm this interaction between Bot1p and Orb6p in fission yeast extracts, HA-Bot1p and GST-Orb6p were co-expressed in fission yeast cells, and GST-Orb6p was purified using glutathione-coupled resin. […] Furthermore, neither GST nor GST-Orb6p co-purified with HA-tagged Cdc23p, when co-expressed as an additional control for specificity.

[3] = target: T3, HA-tagged Tea1p (nmt1-HA3tea1); experiment: glutathione beads carrying GST-Orb6p with co-purified HA-Bot1p, incubated with an extract containing HA-Tea1p
Procedure: as §1
Glutathione beads were washed three times in HB buffer and then eluted. The eluate was run on a 10% polyacrylamide gel, blotted on nitrocellulose, and probed with a primary anti-HA antibody (Covance) or, separately, with a primary anti-GST antibody (Molecular Probes) and with a horseradish peroxidase-conjugated secondary antibody (ECL, Amersham).
To investigate whether Bot1p is able to form a complex with Tea1p and Orb6p, we determined if these proteins co-immunoprecipitate in cell extracts, if they interact in the yeast two-hybrid system, and if they are able to associate in vitro. […]

[4] = target: Tea1p fused to the DNA binding domain of GAL4 (pAS1) (Schizosaccharomyces pombe, UniProt P04386 1-147; P87061 1-1147); experiment: yeast two-hybrid (HIS3 and LACZ reporters)
Text: (§2) The tea1 gene was fused to the DNA binding domain of GAL4 in a plasmid (pAS1) carrying the trp1 marker. The orb6 gene was fused to the DNA binding domain of GAL4 (pAS1-orb6) and to the GAL4 activator domain (pACT2-orb6). The cDNA library was cloned to the transcription activator domain of GAL4 in a plasmid (pACT) carrying the leu2 marker. Plasmids pAS1, pACT2, pSE1111 (pACT-SNF4), pSE1112 (pAS1-SNF1), pAS1-p53, pAS1-lamin and the S. pombe library prepared in phage λ vectors and plasmids pAS1-SNF1 and pAS1-lamin, both harbored in Y187 strain, were kindly provided by Dr. S. Elledge. The test for cell growth on medium lacking histidine, the beta-galactosidase activation assay and the mating test to detect interaction specificity were performed as described (14). After screening 2×10⁶ transformants, we found five proteins that interact with Orb6p and four that interact with Tea1p in this system, and that were identified multiple times in the screen. Clones containing bot1+ were isolated 22 times in the Orb6p screen and eight times in the Tea1p screen. All clones contained the full-length bot1 sequence, although they usually lacked the initial ATG codon. For beta-galactosidase activation, three independent transformants were assayed for each condition.
(§3) To identify novel components of the Orb6p pathway, a two-hybrid screen was performed to identify cDNAs encoding proteins that interact with Orb6p. One of these, isolated 22 times in this screen, was a novel protein that we named Bot1p. […] The specificity of the positive interaction between Orb6p and Bot1p in the two-hybrid system was controlled by cotransformation of pAS1-orb6 and pACT-bot1 independently with a number of control plasmids. Co-expression of SNF1p or SNF4p was used as positive controls. Orb6p was unable to support the activation of the LACZ-GAL4 and HIS3-GAL4 promoters when co-expressed with GAL4 activation domain fused to SNF4p, or with the GAL4 activation domain (GAD) alone. Bot1p was unable to support the activation of the LACZ-GAL4 and HIS3-GAL4 promoters when co-expressed with the GAL4 binding domain fused to p53, Cdc23p, GAL4 DNA binding domain (GBD) alone, or fused to SNF1p or Cdt1p.

[5] = target: T4, Orb6p fused to the DNA binding domain of GAL4 (pAS1-orb6) (Schizosaccharomyces pombe, UniProt P04386 1-147; O13310 1-469, limits assumed); experiment: LACZ-GAL4 reporter in strain BY3161, control of the three-hybrid test
[6] = target: T4, Orb6p fused to the DNA binding domain …; experiment: yeast two-hybrid (HIS3 and LACZ reporters)
Text: as §2, §3

| Binder | GST-Orb6p autophosphorylation (in vitro protein kinase activity) [1] | in vitro phosphorylation of Bot1p by Orb6p [1] | binding result [2] | binding result [3] | binding result [4] | binding result [5] | binding result [6] |
| --- | --- | --- | --- | --- | --- | --- | --- |
| B1 | The level of GST-Orb6p autophosphorylation was the same for proteins isolated from control and Bot1p-overexpressing cells | Orb6p-associated Bot1p was not phosphorylated in vitro by Orb6p | no binding | no binding | – | – | – |
| B2 | – | – | – | – | no binding | no binding | – |
| B3 | – | – | – | – | no binding | – | no binding |

From patent US20040106173A1, “Bot1: target for antifungal agents” (The University of Miami, priority 2001, published 2004)
